Changes are numbered by the printed parent chain.
T1: animal free recombinant human IL-4 (AF-200-04: Peprotech, Inc.) (human, UniProt P05112 25-153)
T1 construct: Bought reagent
T1 sequence (looked up): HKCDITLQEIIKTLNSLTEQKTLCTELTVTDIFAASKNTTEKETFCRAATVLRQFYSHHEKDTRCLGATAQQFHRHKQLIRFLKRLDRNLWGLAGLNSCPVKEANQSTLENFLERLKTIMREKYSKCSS

B1: human anti-IL-4 antibody (PDB: 5FHX), original (unmodified) (antibody, human IgG1, kappa, V domains shown)
VH: AVQLQQSGPELVKPGASVKISCKASGYSFTSYWIHWIKQRPGQGLEWIGMIDPSDGETRLNQRFQGRATLTVDESTSTAYMQLRSPTSEDSAVYYCTRLKEYGNYDSFYFDVWGAGTLVTVSS
VL: DIQMTQSPASLSVSVGDTITLTCHASQNIDVWLSWFQQKPGNIPKLLIYKASNLHTGVPSRFSGSGSGTGFTLTISSLQPEDIATYYCQQAHSYPFTFGGGTKLEIKR
notes: IgG with full heavy and light chains; also called original anti-IL-4 antibody
B2: R4 variant of anti-IL-4 antibody (antibody, human IgG1, kappa, V domains shown)
VH: B1 VH
VL: B1 VL with S63R, S65R, S67R, G70R
notes: IgG; light chain positions 63, 65, 67, 70 (Chothia) changed to Arg
B3: R3 variant of anti-IL-4 antibody (antibody, human IgG1, kappa, V domains shown)
VH: B1 VH
VL: B1 VL with S63R, S65R, S67R
notes: IgG; light chain positions 63, 65, 67 (Chothia) changed to Arg

Experiments:
[1] = biological target: T1, animal free recombinant human IL-4 …; assay: ELISA, IL-4 coated on plate, HRP anti-human IgG detection
Method: (§1) Affinity of the original anti-IL-4 antibody and variants was measured by ELISA method. As an antigen, an animal free recombinant human IL-4 (AF-200-04: Peprotech, Inc.) was used. The IL-4 was diluted with 1% BSA/TBS to prepare an antigen solution (5 μg/mL). Each of the original anti-IL-4 antibody, R3 variant and R4 variant was diluted with 1% BSA/TBS to prepare an antibody solution (1000 ng/mL, 250 ng/mL, 62.5 ng/mL, 15.63 ng/mL, 3.91 ng/mL, 0.98 ng/mL, and 0.244 ng/mL). As a detection antibody, an HRP-labeled anti-human IgG antibody (Bethyl Laboratories) was used. The detection antibody was diluted with 1% BSA/TBS to prepare a detection antibody solution (100 ng/mL).
(§2) The antigen solution was dispensed at 50 μL per well into a 96 well plate for ELISA (Thermo Fisher Scientific), and the plate was incubated at 4° C. overnight. The plate was washed 3 times with 200 μL of a washing solution per well (0.05% Tween 20-containing TBS). A blocking solution (1% BSA-containing TBS) was dispensed at 250 μL per well, and the plate was incubated at 4° C. overnight. The blocking solution was removed, the […] solution was dispensed at 50 μL of antibody solution per well into the plate, and the plate was incubated at room temperature for 15 minutes. After washing the plate 3 times with a washing solution, the detection antibody solution was dispensed at 50 μL per well, and the plate was incubated at room temperature for 1 hour. After washing the plate 3 times with a washing solution, a substrate solution (Seracare) was dispensed at 100 μL per well into the plate, and the absorbance at 450 nm was measured with a plate reader SpectraMax 190 Microplate Reader (Molecular Devices, LLC.).

[2] = biological target: T1, animal free recombinant human IL-4 …; assay: ELISA; affinity ratio with the original antibody as 1.0
Method: as §1, §2

Binder	EC50 [1] [µg/mL]	EC50 ratio [2]
B1	0.304	1
B2	0.176	1.7
B3	0.18	1.7
